Assay [1] deals with T1, KV1.2 (Homo sapiens, UniProt P16389). Briefly: whole-cell patch clamp (koff/kon block kinetics). In general terms: Patch clamp records ionic current or voltage across a cell membrane.
The target of assay [2] is T1, KV1.2. Briefly: whole-cell patch clamp (Hill fit of concentration-response).
For the next assay, the target named is KCa2.2 (Homo sapiens, UniProt Q9H2S1). The description is as above.
The target of a further assay is KCa3.1 (Homo sapiens, UniProt O15554). The description is as above.
Chain of KCa3.1 (O15554 whole entry): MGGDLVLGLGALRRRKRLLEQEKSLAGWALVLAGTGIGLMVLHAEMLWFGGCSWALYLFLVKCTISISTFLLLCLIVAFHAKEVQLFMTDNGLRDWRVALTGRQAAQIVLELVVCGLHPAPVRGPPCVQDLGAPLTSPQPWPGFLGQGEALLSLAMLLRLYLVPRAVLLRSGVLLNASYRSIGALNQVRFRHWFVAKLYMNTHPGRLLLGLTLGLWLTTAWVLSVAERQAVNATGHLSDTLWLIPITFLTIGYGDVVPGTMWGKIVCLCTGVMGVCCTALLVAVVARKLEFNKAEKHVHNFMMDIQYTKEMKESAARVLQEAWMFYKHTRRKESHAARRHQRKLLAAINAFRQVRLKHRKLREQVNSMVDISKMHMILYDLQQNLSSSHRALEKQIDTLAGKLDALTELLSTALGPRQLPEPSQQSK

T1 sequence (P16389 whole entry): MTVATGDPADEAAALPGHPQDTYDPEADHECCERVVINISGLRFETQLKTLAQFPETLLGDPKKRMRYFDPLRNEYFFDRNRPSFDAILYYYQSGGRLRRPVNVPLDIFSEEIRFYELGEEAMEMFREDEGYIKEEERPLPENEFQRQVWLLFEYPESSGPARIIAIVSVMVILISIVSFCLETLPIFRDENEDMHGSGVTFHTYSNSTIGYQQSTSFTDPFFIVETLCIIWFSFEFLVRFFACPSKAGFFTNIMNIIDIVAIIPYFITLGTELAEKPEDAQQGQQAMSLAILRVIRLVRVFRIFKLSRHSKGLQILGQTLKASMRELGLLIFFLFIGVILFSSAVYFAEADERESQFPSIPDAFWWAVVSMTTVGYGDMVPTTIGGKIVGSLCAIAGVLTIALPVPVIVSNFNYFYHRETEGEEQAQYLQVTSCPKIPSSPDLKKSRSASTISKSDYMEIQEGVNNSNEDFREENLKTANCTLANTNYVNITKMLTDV
Chain of KCa2.2 (Q9H2S1 whole entry): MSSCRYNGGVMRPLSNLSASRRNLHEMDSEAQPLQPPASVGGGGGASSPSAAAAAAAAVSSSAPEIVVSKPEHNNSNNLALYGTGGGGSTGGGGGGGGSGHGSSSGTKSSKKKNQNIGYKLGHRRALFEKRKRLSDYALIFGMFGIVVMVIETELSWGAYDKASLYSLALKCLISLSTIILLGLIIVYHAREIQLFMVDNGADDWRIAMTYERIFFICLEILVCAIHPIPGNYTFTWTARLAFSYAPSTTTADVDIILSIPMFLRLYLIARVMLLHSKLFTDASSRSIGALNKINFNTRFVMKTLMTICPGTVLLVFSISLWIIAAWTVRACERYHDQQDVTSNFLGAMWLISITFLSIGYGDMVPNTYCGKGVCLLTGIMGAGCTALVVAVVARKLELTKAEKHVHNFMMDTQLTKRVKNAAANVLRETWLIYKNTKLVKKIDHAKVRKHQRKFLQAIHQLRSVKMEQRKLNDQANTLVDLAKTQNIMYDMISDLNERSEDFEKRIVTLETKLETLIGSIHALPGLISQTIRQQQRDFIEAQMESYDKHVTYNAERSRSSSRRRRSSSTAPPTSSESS

B1: Cm39 (α-KTx 4.8) (peptide)
chain: TFINHKCKSSSECLPACKAAIGRASGKCINSTCKCYY
A word on the Kd: it is the constant that tells how readily two partners part at equilibrium. Read a high Kd as weaker binding. Consider B1, for which the Kd with KV1.2 [1] turned out to be 87.8 nM; in the assay with KV1.2 [2], 65 nM; with KCa2.2, 502 nM; with KCa3.1, 57.7 nM.

For the origin of these results see PMC9866218 (2023).
